Experimental findings from paper PMC4222082, “Nitrogen starvation-induced transcriptome alterations and influence of transcription regulator mutants in Mycobacterium smegmatis” are described below.

In this data set the target is T1, MBP-GlnR (Mycobacterium smegmatis (SMR5?)) (UniProt A0R4C4).
T1 sequence: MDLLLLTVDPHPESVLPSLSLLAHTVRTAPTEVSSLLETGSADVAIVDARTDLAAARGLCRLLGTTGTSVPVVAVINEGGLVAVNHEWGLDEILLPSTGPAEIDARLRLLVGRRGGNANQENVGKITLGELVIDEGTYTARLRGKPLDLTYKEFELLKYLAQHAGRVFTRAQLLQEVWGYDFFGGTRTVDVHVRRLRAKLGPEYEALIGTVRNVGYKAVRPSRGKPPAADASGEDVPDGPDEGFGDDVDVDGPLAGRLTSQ
The data set is described as follows: EMSA. The settings on record: GlnR: DIG Gel Shift Kit (Roche) buffer, 6% native PAGE, 0.5x TBE; AmtR: 20 mM Tris-HCl pH 7.9, 25 mM KCl, 1 mM DTT, 5 mM MgCl2, 0.5 mg/ml BSA, 5% glycerol ….
As to “AACGGTGTGCTTCCTCCGCTGTAGGTGGATCACCGCGTGAAGCGGGTGACCGGTGCAGGGTCGGCGCAACTTACTGCGCTTGGAAAATGCTCGCGCAGGAACGTTTCGGTGGATCCCGTCGGCAATGTCGGTGACGTTAACTCTGCACGGCCCCGCGTTACGTTGTGGTGACCTGACGCAACGGATTTCGTTGTGTGTCCGGTAGGCCCGCGTGACGACGAACCCGGCCGGCCGATGTTCGGCCGACCGGGTCGTCACGAGGTCACGGCTA (double strand) [msmeg_2526 upstream]”, the binding entry is “binds”.
Then “AGGCTTTTCGCCGGCTGCTGTGATCACACCAAGATCGTCGGCGCAGTCGATGACCTAGATGTTGTCGTGAAGTTTCAAGAATGTGACGTCATCAGTCGGCGGCTGCGTCGACCGCCAGCAGCAGTCGCAACGCGCCCGCATCGCGAGGGACTGCCGGGTCGAGGCCGGTACTGCTGGTCACCCTGGCCAGTCGGTTGATGACGGTGTTGCGATGGCAGTAGAGCCTGCGAGCGGTCTCGGTGACGGAACCGGTGTCGAGATAGATGCGCAGCGTGTCCGTGAGCAAGGTCTGATCGCGCG (double strand) [msmeg_3400 upstream]”, with “binds”.
Then “CAAACATCTCCTCACGGTGGCGGCTCGAAACAAGCCGTTCACTCGCAGTAACCGACGTTTCTGTTACGGAGATGGTCGCCAAGTGTTGCAGCGTGGTTAAAACTCAAACCGCGCTTTACAGCGGGTTGCCCCATCGGCCCGTGAACGCAACCTGCTCAAGTGCCAGACGTTCACGCGGGCGGCTGTCGCGTTCGGCGATGGCCTCGTCGGCCGTCGCGTAGTCACCGAGGTGTCCCAGCG (double strand) [amt1 upstream]”, with “binds”.
Then “CATGTGCCACCGTCGCGGCACGCGCGCCGACGAGTTCGCGCGCAGCCGCGGGCAGTTCGGCCGTGGCGGCGCGCAGACCGGCCACCGAGGTCGCCGCGTCGATGTGGCGCTGCACGAGGTCGGGGGCGGGCATACCGGCGATTGTGACAGGCCCACGGGCGGTGAGGGTTCTGCAACCGAATGCTTACCGACGGCTACATGAACGAAACATTCGGGTGACGCCGAGGACACGCGCCCATTGTTATCTGTCATCTGACAGGTAAGAGCTGGCGGCAGCGCCCCTAGCCAGAGAGAAAACCC (double strand) [msmeg_2184 upstream (GlnR probe)]”, with “binds”.
As for “CCAGTCCAGGAAATCACCGGATATCGGCTGGCGCGTCATTTTGACGGAAAACGTGGGGTACGCCGTTTCGCCGGGTCACCTCGGCGAACCACCGTGCGCTGGCCTTGGGCGTGCGGACCTGCGTGGCGTAATCGACGTGGATCAGGCCGAACCGCTTGGCGTAGCCGTACGCCCACTCGAAGTTGTCCAGCAGGCTCCACACGAAATAACCGCGGATGTCGGCACCATCGTCGATCGCCCG (double strand) [narK upstream]”, the binding entry is recorded as “no binding”.
Then “CCCAGCTCGCCACTCTCGATGGTGGCCAGCACCAGGGACTTCTCGGGCACGAACCCGAGCACGGCGGGCAGCGCCGCGATCAACGATCCGGGCCGGTTGATACGAAAATCCGGTGTGTGCGGTGAAGGTGTCATGTGCCGACCGTGGCAACCGGCGCCGACGCCGTTCACCCCGAAAACCGGCTGCGACGAGTGGCTGTGGACGAAATCGGCTCTGGGGACAACTTCCGAAACAAACTGTTCACGCGCCATTGCGCGTCTCCGGCGTGCACGCGCGCCGACAGCGGCGTACACACTGACC (double strand) [msmeg_2748 upstream]”, with “no binding”; and “CCGCGACGTCGACCGCGCGCCCGGTCACCGGGCCCGGACCCGGCAAGGTGGTCGTGGTGTCGACGACAGGGGACCCGGCGACGCCGTACCAGGCCGGTGTGGACCTCGCCCGGCAAATGGGCGCGGCCCTGATCAGTTTCGACGGTGCGCAGCACACCGTGGTGTTCAACGGAGATGCCTGCGTCGACACCGCGGTGTTGCGCTTCCTGACCGATCTGCAGTCGCCCCCGGGCAACCTTGCCTGCTAGCTCTTGCACCCCCGTAACACAGATTTAACAGCCGGTGCATACGCTGCGGAGC (double strand) [glnA2 upstream]”, with “binds”.
